Data on three variants can be found in IntAct's records for PubMed 38057552.

B1: Sodium/glucose cotransporter 2 (Homo sapiens), P31639 (parent)
chain: MEEHTEAGSAPEMGAQKALIDNPADILVIAAYFLLVIGVGLWSMCRTNRGTVGGYFLAGRSMVWWPVGASLFASNIGSGHFVGLAGTGAASGLAVAGFEWNALFVVLLLGWLFAPVYLTAGVITMPQYLRKRFGGRRIRLYLSVLSLFLYIFTKISVDMFSGAVFIQQALGWNIYASVIALLGITMIYTVTGGLAALMYTDTVQTFVILGGACILMGYAFHEVGGYSGLFDKYLGAATSLTVSEDPAVGNISSFCYRPRPDSYHLLRHPVTGDLPWPALLLGLTIVSGWYWCSDQVIVQRCLAGKSLTHIKAGCILCGYLKLTPMFLMVMPGMISRILYPDEVACVVPEVCRRVCGTEVGCSNIAYPRLVVKLMPNGLRGLMLAVMLAALMSSLASIFNSSSTLFTMDIYTRLRPRAGDRELLLVGRLWVVFIVVVSVAWLPVVQAAQGGQLFDYIQAVSSYLAPPVSAVFVLALFVPRVNEQGAFWGLIGGLLMGLARLIPEFSFGSGSCVQPSACPAFLCGVHYLYFAIVLFFCSGLLTLTVSLCTAPIPRKHLHRLVFSLRHSKEEREDLDADEQQGSSLPVQNGCPESAMEMNEPQAPAPSLFRQCLLWFCGMSRGGVGSPPPLTQEEAAAAARRLEDISEDPSWARVVNLNALLMMAVAVFLWGFYA
partner: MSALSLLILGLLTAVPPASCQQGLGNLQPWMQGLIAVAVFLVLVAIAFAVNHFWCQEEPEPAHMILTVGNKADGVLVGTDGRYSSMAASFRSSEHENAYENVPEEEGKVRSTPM

In this assay the parent is B1. The note with it: with pdz1i_human PDZK1IP1, Q13113.
As to D201A, the “effect of a mutation on the interaction” value is “with no effect”.
In the case of S74A, the “effect of a mutation on the interaction” value is reported as “with no effect”.
Consider F98A, for which the “effect of a mutation on the interaction” value is “with no effect”.
